Test results taken from US20230031980A1 (SHANGHAI NINTH PEOPLE S HOSPITAL SHANGHAI JIAO TONG …, published 2023).

B1: mutant SAGE1I3BD (other)
chain: AMAKKINDDIKYQLAKEVRRAGANYERIFILLEEVQGSMKVKRQFVEFTIKEAAAAAKVVLIQQLEKALKEIDSHCHLRKVKHMRKR
notes: also called mutant SAGE1I3BD (alanine substitutions of six key interface residues)
B2: SAGE1 (Sarcoma antigen 1), full-length protein in cells (other)
chain: MQASPLQTSQPTPPEELHAAAYVFTNDGQQMRSDEVNLVATGHQSKKKHSRKSKRHSSSKRRKSMSSWLDKQEDAAVTHSICEERINNGQPVADNVLSTAPPWPDATIAHNIREERMENGQSRTDKVLSTAPPQLVHMAAAGIPSMSTRDLHSTVTHNIREERMENGQPQPDNVLSTGPTGLINMAATPIPAMSARDLYATVTHNVCEQKMENVQPAPDNVLLTLRPRRINMTDTGISPMSTRDPYATITYNVPEEKMEKGQPQPDNILSTASTGLINVAGAGTPAISTNGLYSTVPHNVCEEKMENDQPQPNNVLSTVQPVIIYLTATGIPGMNTRDQYATITHNVCEERVVNNQPLPSNALSTVLPGLAYLATADMPAMSTRDQHATIIHNLREEKKDNSQPTPDNVLSAVTPELINLAGAGIPPMSTRDQYATVNHHVHEARMENGQRKQDNVLSNVLSGLINMAGASIPAMSSRDLYATITHSVREEKMESGKPQTDKVISNDAPQLGHMAAGGIPSMSTKDLYATVTQNVHEERMENNQPQPSYDLSTVLPGLTYLTVAGIPAMSTRDQYATVTHNVHEEKIKNGQAASDNVFSTVPPAFINMAATGVSSMSTRDQYAAVTHNIREEKINNSQPAPGNILSTAPPWLRHMAAAGISSTITRDLYVTATHSVHEEKMTNGQQAPDNSLSTVPPGCINLSGAGISCRSTRDLYATVIHDIQEEEMENDQTPPDGFLSNSDSPELINMTGHCMPPNALDSFSHDFTSLSKDELLYKPDSNEFAVGTKNYSVSAGDPPVTVMSLVETVPNTPQISPAMAKKINDDIKYQLMKEVRRFGQNYERIFILLEEVQGSMKVKRQFVEFTIKEAARFKKVVLIQQLEKALKEIDSHCHLRKVKHMRKR
notes: Endogenous protein in HuTu 80, K562, U2OS and KYSE30 cells (IP-MS); also called endogenous SAGE1; ectopically expressed SAGE1
B3: INIP (INTS3 and NABP interacting protein) (other, UniProt Q9NRY2 2-104, looked up)
chain: AANSSGQGFQNKNRVAILAELDKEKRKLLMQNQSSTNHPGASIALSRPSLNKDFRDHAEQQHIAAQQKAALQHAHAHSSGYFITQDSAFGNLILPVLPRLDPE

Key:
[1] = molecular target: T1, INTS3CTD (C-terminal domain of INTS3, residues 572-978) (human, UniProt Q68E01 573-979); assay: ITC
T1 construct: also called INTS3CTD dimer
Procedure: The equilibrium dissociation constant of the SAGE1I3BD-INTS3CTD interaction was determined using a MicroCal iTC200 calorimeter (Malvern). The binding enthalpy was measured at 16° C. in 25 mM Tris-HCl pH 8.0, 150 mM NaCl and 5 mM MgCl2. Two independent experiments were performed. ITC data were subsequently analyzed and fitted using Origin 7 software (OriginLab).
All statistical tests of experimental results were performed using the GraphPad Prism 7 unless noted. The statistical significance was calculated via unpaired two-tailed Student's t test. The dissociation constants (Kd) in ITC experiments were calculated using the Origin 7 software as mean±standard error from two independent experiments with a single site-specific binding model. The statistical analysis of in vivo experiments data was performed using nonparametric Mann-Whitney test. Results were represented as mean±standard deviation unless noted and p<0.05 was considered statistically significant.

[2] = molecular target: T2, CBP (CRBP-binding protein) (UniProt Q92793 2-2442, limits assumed); assay: IP of the endogenous SAGE1 complex with anti-SAGE1 antibody (HuTu 80 and other SAGE1-expressing cancer cell lines), MS
T2 construct: also called CREBBP
From the text: (§1) To gain mechanistic insight into SAGE1 function in tumorigenesis, we performed a proteomic analysis of the endogenous SAGE1 complex pulled down in HuTu 80 cells by an anti-SAGE1 antibody. The complex was resolved by SDS-PAGE, visualized by silver staining, and subjected to MS analysis (FIG. 6A and FIGS. 14A-14D). A number of proteins previously linked to transcriptional regulation were reproducibly identified as high-confidence SAGE1 interactors, including CBP (CRBP-binding protein), TLE (Groucho/Transducin-Like Enhancer of Split) proteins, INTS3 (a component of the Integrator complex) and INTS3-binding partners NABP (Nucleic Acid Binding Protein) and INIP (INTS3 and NABP interacting protein) (FIG. 6B). […] The interactions between SAGE1 and these proteins were further confirmed by co-immunoprecipitation (co-IP) analysis (FIG. 6C and FIG. 6D).
(§2) For IP, 1×10^7 cells were lysed in lysis buffer (20 mM Tris-HCl, 150 mM NaCl, 10% Glycerol, 0.5% TritonX-100, 1 mM EDTA, 1 mM EGTA, pH7.4) supplemented with protease inhibitor cocktail (Sigma-Aldrich, #B14001), incubated in 4° C. for 10 min and sonicated by Bioruptor Plus (Diagenode) (5-10% amplitude/power, ON 5 sec-OFF 5 sec) for 1 min. After centrifugation (14,000 rpm, 15 min, 4° C., 1 mg of supernatants were incubated with 5 μg of rabbit anti-SAGE1 polyclonal antibody (Novus Biologicals, #NBP1-84355, or Abcam, #ab233388) and rabbit anti- […]

[3] = molecular target: INTS3 (integrator complex subunit 3), endogenous full-length protein (human, UniProt Q68E01 2-1043); assay: IP-MS with anti-INTS3 antibody in SAGE1-overexpressing 293T cells
Procedure: Given that SAGE1I3BD highly resembles INTS6I3BD, it is likely that they interact with INTS3CTD in a mutually exclusive manner. To test this idea, we mixed purified INTS3CTD-INTS6I3BD complex with GST-tagged SAGE1I3BD and conducted a GST-pull-down analysis.
For IP, 1×10^7 cells were lysed in lysis buffer (20 mM Tris-HCl, 150 mM NaCl, 10% Glycerol, 0.5% TritonX-100, 1 mM EDTA, 1 mM EGTA, pH7.4) supplemented with protease inhibitor cocktail (Sigma-Aldrich, #B14001), incubated in 4° C. for 10 min and sonicated by Bioruptor Plus (Diagenode) (5-10% amplitude/power, ON 5 sec-OFF 5 sec) for 1 min. After centrifugation (14,000 rpm, 15 min, 4° C., 1 mg of supernatants were incubated with 5 μg of rabbit anti-SAGE1 polyclonal antibody (Novus Biologicals, #NBP1-84355, or Abcam, #ab233388) and rabbit anti-
INTS3 polyclonal antibody (Novus Biologicals, #NBP1-19091) for 16 hours respectively. Next day, 20 μL of Protein G beads (Millipore, #LSKMAGG02) were added into each tube and incubated for 3 more hours. Then beads were harvested and washed for three times with lysis buffer and eluted by 0.2 M Glycine (pH 2.2).

[4] = molecular target: B2; assay: IP of the endogenous SAGE1 complex with anti-SAGE1 antibody (HuTu 80 and other SAGE1-expressing cancer cell lines), MS
From the text: as §1, §2

INTS3 (integrator complex subunit 3), endogenous full-length protein, sequence (Q68E01 2-1043 limits assumed, one chain of several): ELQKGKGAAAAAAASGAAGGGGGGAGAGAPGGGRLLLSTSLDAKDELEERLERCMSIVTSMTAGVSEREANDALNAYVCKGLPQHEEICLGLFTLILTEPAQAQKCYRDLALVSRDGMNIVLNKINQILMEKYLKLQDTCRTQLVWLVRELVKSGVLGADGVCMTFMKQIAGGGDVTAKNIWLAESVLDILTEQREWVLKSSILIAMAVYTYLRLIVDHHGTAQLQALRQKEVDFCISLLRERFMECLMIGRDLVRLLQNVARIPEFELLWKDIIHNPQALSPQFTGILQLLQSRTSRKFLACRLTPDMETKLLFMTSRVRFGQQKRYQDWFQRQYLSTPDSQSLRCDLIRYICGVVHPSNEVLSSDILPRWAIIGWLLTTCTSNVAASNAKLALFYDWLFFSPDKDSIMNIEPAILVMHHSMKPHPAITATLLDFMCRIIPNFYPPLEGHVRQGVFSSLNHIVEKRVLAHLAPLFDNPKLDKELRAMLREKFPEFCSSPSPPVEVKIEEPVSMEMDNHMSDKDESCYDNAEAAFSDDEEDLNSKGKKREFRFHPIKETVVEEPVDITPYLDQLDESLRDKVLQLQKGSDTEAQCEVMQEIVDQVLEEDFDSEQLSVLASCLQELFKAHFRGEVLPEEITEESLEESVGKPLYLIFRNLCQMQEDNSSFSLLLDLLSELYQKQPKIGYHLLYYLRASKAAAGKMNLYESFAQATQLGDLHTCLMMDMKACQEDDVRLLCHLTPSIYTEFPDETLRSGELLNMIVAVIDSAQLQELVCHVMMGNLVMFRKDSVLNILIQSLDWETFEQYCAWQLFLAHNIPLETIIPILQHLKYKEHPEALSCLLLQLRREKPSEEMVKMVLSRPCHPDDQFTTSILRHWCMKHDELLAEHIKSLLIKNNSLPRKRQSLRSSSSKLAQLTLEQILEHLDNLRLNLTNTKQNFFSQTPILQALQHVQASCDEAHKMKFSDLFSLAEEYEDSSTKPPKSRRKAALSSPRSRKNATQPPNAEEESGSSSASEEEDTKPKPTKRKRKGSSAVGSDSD
T2 sequence (Q92793 2-2442 limits assumed): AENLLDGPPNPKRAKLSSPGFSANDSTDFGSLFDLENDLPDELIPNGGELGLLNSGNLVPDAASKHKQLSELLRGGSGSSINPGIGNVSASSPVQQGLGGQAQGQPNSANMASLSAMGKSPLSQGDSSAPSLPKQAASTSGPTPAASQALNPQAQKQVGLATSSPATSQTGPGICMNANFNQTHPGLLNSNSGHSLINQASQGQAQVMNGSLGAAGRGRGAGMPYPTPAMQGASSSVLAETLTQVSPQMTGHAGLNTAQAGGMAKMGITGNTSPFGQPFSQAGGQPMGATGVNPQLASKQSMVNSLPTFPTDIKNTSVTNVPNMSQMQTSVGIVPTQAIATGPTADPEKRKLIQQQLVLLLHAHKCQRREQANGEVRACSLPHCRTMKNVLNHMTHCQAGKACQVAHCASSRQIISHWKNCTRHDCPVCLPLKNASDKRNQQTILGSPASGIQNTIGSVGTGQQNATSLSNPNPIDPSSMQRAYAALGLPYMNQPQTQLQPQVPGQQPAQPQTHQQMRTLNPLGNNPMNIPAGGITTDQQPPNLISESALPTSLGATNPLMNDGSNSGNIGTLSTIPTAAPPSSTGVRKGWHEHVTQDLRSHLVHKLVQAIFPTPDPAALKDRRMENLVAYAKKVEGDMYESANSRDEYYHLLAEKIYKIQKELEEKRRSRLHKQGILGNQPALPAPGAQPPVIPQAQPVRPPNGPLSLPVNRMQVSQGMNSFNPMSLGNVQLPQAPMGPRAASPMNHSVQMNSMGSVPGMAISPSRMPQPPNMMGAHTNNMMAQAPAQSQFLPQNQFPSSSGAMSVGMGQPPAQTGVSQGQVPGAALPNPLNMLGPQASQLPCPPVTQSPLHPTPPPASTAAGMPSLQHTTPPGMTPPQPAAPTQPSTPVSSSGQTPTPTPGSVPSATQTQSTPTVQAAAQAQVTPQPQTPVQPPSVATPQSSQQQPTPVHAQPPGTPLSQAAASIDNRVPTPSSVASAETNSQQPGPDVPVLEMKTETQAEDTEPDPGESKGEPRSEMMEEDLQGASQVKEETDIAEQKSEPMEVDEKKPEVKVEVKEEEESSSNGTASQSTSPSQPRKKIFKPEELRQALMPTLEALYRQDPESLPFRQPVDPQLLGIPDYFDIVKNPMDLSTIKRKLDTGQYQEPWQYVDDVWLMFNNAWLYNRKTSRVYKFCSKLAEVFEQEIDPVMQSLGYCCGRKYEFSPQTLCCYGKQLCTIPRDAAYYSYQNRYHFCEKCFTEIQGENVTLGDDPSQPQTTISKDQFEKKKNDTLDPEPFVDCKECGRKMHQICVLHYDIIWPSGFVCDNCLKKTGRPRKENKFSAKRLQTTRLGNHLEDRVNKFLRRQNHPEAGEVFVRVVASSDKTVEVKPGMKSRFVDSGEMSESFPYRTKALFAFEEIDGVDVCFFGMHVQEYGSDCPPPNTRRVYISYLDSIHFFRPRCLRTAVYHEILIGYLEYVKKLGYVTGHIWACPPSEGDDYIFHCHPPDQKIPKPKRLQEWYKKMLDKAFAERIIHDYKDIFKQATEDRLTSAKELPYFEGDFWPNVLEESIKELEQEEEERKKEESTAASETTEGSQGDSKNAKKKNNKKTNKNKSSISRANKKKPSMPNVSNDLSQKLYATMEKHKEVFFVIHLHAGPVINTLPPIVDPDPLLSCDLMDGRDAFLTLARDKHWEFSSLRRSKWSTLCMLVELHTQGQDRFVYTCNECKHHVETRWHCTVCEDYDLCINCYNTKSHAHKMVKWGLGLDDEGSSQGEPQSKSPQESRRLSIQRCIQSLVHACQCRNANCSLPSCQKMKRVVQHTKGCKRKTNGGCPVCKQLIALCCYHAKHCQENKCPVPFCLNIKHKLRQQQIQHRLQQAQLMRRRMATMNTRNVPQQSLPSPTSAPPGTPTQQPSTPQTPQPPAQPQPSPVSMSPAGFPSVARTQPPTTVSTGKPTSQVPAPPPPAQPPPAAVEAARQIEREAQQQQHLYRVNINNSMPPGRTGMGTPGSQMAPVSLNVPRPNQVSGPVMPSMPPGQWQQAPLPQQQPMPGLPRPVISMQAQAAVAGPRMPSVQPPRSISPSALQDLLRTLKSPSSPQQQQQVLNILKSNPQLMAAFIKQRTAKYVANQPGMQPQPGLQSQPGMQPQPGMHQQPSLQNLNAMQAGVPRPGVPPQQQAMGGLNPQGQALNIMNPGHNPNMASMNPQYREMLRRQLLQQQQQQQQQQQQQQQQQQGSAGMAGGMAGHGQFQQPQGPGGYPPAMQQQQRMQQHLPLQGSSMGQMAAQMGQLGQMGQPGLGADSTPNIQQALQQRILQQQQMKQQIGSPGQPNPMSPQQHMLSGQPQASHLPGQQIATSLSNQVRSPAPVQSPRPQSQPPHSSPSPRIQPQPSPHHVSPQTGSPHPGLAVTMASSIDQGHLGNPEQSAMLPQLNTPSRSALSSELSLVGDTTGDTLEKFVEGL

B1
binding result [1]: no binding

B2
binding result [2]: binds
binding result [3]: binds

B3
binding result [4]: binds
